Laboratory results as given in US20230018888A1.

Target: Adhesion G Protein-coupled Receptor E2 (ADGRE2), overexpressed on murine lymphoma EL4 cells (human) (UniProt Q9UHX3)
Assay: flow cytometry, scFv titrated on EL4 cells overexpressing ADGRE2

Chain of UniProt Q9UHX3 (Q9UHX3 24-823): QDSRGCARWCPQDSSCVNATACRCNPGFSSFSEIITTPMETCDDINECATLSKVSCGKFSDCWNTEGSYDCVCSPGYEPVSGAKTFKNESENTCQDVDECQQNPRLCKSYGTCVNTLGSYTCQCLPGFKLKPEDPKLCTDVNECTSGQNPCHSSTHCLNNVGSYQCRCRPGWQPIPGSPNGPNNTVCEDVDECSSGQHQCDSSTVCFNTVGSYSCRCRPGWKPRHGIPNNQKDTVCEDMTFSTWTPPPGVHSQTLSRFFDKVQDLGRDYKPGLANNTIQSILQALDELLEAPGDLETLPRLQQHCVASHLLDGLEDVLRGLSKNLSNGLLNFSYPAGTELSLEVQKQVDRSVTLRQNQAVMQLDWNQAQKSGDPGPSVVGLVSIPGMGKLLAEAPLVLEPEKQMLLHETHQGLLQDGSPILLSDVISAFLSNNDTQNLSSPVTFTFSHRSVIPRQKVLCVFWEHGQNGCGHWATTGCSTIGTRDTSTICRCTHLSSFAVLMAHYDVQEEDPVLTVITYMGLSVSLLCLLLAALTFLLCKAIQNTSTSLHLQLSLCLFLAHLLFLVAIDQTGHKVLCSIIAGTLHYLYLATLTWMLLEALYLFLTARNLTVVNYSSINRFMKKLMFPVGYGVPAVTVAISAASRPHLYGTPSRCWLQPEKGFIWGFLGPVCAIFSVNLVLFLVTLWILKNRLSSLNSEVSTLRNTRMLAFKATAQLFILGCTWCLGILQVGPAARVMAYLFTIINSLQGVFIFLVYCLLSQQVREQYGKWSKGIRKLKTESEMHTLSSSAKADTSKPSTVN

B1: anti-ADGRE2 scFv E (scFv, part only; not given: VH-VL linker, V domains shown, not shown: another chain or arm of the molecule; small tags and cut ends)
VH: QVQLQQSGAEVKKPGASVKVSCKASGYTFTNYWMQWVRQAPGQGLEWIGAVYPGDGDTRHTQKFKGRVTMTADKSTSTVYMELSSLRSEDTAVYYCARGFTAYGMDYWGQGTLVTVSS
VL: QIVLTQSPATLSLSPGERATLTCSASSSVSYMHWYQQKPGLSPKRWIYDTSKLASGVPDRFSGSGSGTDYTFTIRRLEPEDFATYYCQQWSSNPLTFGQGTKVEIK
EC50: 10.6 nM

B2: anti-ADGRE2 scFv M (scFv, part only; not given: VH-VL linker, V domains shown, not shown: another chain or arm of the molecule; small tags and cut ends)
VH: QVQLQQSGAEVKKPGASVKLSCKASGYTFTNYWMQWIRQAPGQGLEWIGAVYPGDGDTRYTQKFQGRATLTADTSTSTAYMEVSSLRSEDTAVYYCARGFTAYGMDYWGQGTTVTVSS
VL: EIVLTQSPATLSASPGERVTMSCSASSSVSYMHWYQQKPGLAPRRWIYDTSKLASGVPDRFSGSGSGTDYTFTISRMEPEDFATYYCQQWSSNPLTFGGGTKLEIK
EC50: 16.4 nM
